In patent publication US20110300138A1 (published 2011):

Experiments:
Experiment in all cases: cell-based or functional assay
[1] = target: wild type TSHR (human TSH receptor, full length) expressed in CHO cells (human) (UniProt P16473)
[2] = target: TSHR with Arg109 mutated to Ala, expressed in CHO cells (human) (UniProt P16473)
[3] = target: TSHR with Lys58 mutated to Ala expressed in CHO cells (human) (UniProt P16473)
[4] = target: TSHR with Asp151 mutated to Ala, expressed in CHO cells (human) (UniProt P16473)
[5] = target: wild type TSHR expressed in CHO cells (human) (UniProt P16473)
[6] = target: TSHR with His105 mutated to Ala (expressed in CHO cells) (human) (UniProt P16473)

## TSH (ligand)
[1]
  Cyclic AMP produced (pmol/mL), TSH 1 ng/mL, Experiment 2: 54.2 pmol/mL
  Cyclic AMP produced (pmol/mL), TSH 1 ng/mL, Experiment 3: 192 pmol/mL
  Cyclic AMP produced (pmol/mL), TSH 3 ng/mL, Experiment 1: 61.3 pmol/mL
  Cyclic AMP produced (pmol/mL), TSH 3 ng/mL, Experiment 2: 58.1 pmol/mL
  Cyclic AMP produced (pmol/mL), TSH 3 ng/mL, Experiment 3: 226 pmol/mL
  Cyclic AMP produced; TSH 3 ng/mL: 50 pmol/mL
  Cyclic AMP produced; TSH 3 ng/mL; Experiment 1: 67.7 pmol/mL
  Cyclic AMP produced; TSH 3 ng/mL; Experiment 2: 60.7 pmol/mL
  Cyclic AMP produced; TSH (2): 53.1 pmol/mL
  Cyclic AMP produced; TSH (2); Experiment 1: 67.5 pmol/mL
  Cyclic AMP produced; TSH (2); Experiment 2: 67.8 pmol/mL
[2]
  % inhibition of TSH stimulation; TSH (2) control; Experiment 1: 0%
  % inhibition of TSH stimulation; TSH (2) control; Experiment 2: 6%
  Cyclic AMP produced; TSH 3 ng/mL; Experiment 1: 32.9 pmol/mL
  Cyclic AMP produced; TSH 3 ng/mL; Experiment 2: 53.4 pmol/mL
  Cyclic AMP produced; TSH (2); Experiment 1: 33.3 pmol/mL
  Cyclic AMP produced; TSH (2); Experiment 2: 50.4 pmol/mL
  Mutated/wild type (%) of cyclic AMP produced; TSH 3 ng/mL; Experiment 1: 49%
  Mutated/wild type (%) of cyclic AMP produced; TSH 3 ng/mL; Experiment 2: 88%
  Mutated/wild type (%) of cyclic AMP produced; TSH (2); Experiment 1: 49%
  Mutated/wild type (%) of cyclic AMP produced; TSH (2); Experiment 2: 74%
[3]
  % inhibition of TSH stimulation; TSH (2); Experiment 1: 0%
  % inhibition of TSH stimulation; TSH (2); Experiment 2: 1%
  Cyclic AMP produced; TSH 3 ng/mL; Experiment 1: 78.5 pmol/mL
  Cyclic AMP produced; TSH 3 ng/mL; Experiment 2: 96.8 pmol/mL
  Cyclic AMP produced; TSH (2); Experiment 1: 85.2 pmol/mL
  Cyclic AMP produced; TSH (2); Experiment 2: 95.8 pmol/mL
  Mutated/wild type (%) of cyclic AMP produced; TSH 3 ng/mL; Experiment 1: 114%
  Mutated/wild type (%) of cyclic AMP produced; TSH 3 ng/mL; Experiment 2: 99%
  Mutated/wild type (%) of cyclic AMP produced; TSH (2); Experiment 1: 115%
  Mutated/wild type (%) of cyclic AMP produced; TSH (2); Experiment 2: 94%
[4]
  % inhibition of TSH stimulation, mutated TSHR; TSH (2) (run at the end of assay): 9%
  Mutated/Wild type (%) of cyclic AMP produced, TSH 0.01 ng/mL: 209%
  Mutated/Wild type (%) of cyclic AMP produced, TSH 0.03 ng/mL: 149%
  Mutated/Wild type (%) of cyclic AMP produced, TSH 0.1 ng/mL: 99%
  Mutated/Wild type (%) of cyclic AMP produced, TSH 0.3 ng/mL: 80%
  Mutated/Wild type (%) of cyclic AMP produced, TSH 1 ng/mL: 66%
  Mutated/wild type (%) of cyclic AMP produced; TSH 3 ng/mL: 68%
  Mutated/wild type (%) of cyclic AMP produced; test sample: TSH (3 ng/mL): 62%
  Mutated/wild type (%) of cyclic AMP produced; test sample: TSH (2) (3 ng/mL, run at the end of assay): 44%
[5]
  % inhibition of TSH stimulation; TSH (2), run at the end of assay: 0%
  Cyclic AMP produced; TSH 3 ng/mL alone: 93.6 pmol/mL
  Cyclic AMP produced; TSH (2) 3 ng/mL, run at the end of assay: 117 pmol/mL
[6]
  % inhibition of TSH stimulation; TSH (2), run at the end of assay: 11%
  Cyclic AMP produced; TSH 3 ng/mL alone: 65.9 pmol/mL
  Cyclic AMP produced; TSH (2) 3 ng/mL, run at the end of assay: 58.5 pmol/mL
  Mutated/wild type (%) of cyclic AMP produced; TSH 3 ng/mL alone: 70%
  Mutated/wild type (%) of cyclic AMP produced; TSH (2) 3 ng/mL, run at the end of assay: 50%
